Source: patent US20180250358A1, “GHRH AGONISTS FOR THE TREATMENT OF ISCHEMIC DISORDERS” (published 2018)
Non-standard residues stand in square brackets, D forms with d. No end group written: not given here. *: point of attachment. Desaminotyrosyl = O=C(CCc1ccc(O)cc1)*; NMeY = CN[C@@H](Cc1ccc(O)cc1)C(=O)O; Agmatine = N=C(N)NCCCCN*; Nle = CCCC[C@H](N)C(=O)O; Orn = NCCC[C@H](N)C(=O)O; Abu = CC[C@H](N)C(=O)O

B1: JI-38 [Dat^1, Gln^8, Orn^12,21, Abu^15, Nle^27, Asp^28, Agm^29]hGHRH(1-29)NH2 (peptide)
peptide: [Desaminotyrosyl]ADAIFTQSYR[Orn]VL[Abu]QLSAR[Orn]LLQDI[Nle]D[Agmatine]
SMILES: CCCC[C@H](NC(=O)[C@@H](NC(=O)[C@H](CC(=O)O)NC(=O)[C@H](CCC(N)=O)NC(=O)[C@H](CC(C)C)NC(=O)[C@H](CC(C)C)NC(=O)[C@H](CCCN)NC(=O)[C@H](CCCNC(=N)N)NC(=O)[C@H](C)NC(=O)[C@H](CO)NC(=O)[C@H](CC(C)C)NC(=O)[C@H](CCC(N)=O)NC(=O)[C@H](CC)NC(=O)[C@H](CC(C)C)NC(=O)[C@@H](NC(=O)[C@H](CCCN)NC(=O)[C@H](CCCNC(=N)N)NC(=O)[C@H](Cc1ccc(O)cc1)NC(=O)[C@H](CO)NC(=O)[C@H](CCC(N)=O)NC(=O)[C@@H](NC(=O)[C@H](Cc1ccccc1)NC(=O)[C@@H](NC(=O)[C@H](C)NC(=O)[C@H](CC(=O)O)NC(=O)[C@H](C)NC(=O)CCc1ccc(O)cc1)[C@@H](C)CC)[C@@H](C)O)C(C)C)[C@@H](C)CC)C(=O)N[C@@H](CC(=O)O)C(=O)NCCCCNC(=N)N

Tests used:
[1] = molecular target: GHRH receptor of human pituitary membranes (human) (UniProt Q02643); assay: competition vs 125I-[His1,Nle27]hGHRH(1-32)NH2, human pituitary membranes
[2] = molecular target: T1, GHRH receptor of human pituitary membranes (human, UniProt Q02643); assay: competition vs 125I-JV-1-42, human pituitary membranes
T1 sequence: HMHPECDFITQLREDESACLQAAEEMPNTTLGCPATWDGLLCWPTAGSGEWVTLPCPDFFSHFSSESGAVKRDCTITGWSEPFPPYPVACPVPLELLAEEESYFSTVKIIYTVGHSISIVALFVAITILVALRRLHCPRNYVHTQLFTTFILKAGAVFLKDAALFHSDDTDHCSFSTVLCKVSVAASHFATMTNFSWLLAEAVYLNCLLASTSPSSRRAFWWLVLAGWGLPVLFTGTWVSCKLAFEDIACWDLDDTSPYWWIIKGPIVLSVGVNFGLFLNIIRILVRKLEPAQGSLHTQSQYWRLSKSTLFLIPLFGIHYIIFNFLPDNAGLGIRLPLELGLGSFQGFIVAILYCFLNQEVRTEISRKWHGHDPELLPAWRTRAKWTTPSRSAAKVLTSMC
Experimental: The final binding affinities were expressed as IC₅₀ values and were calculated by using the LIGAND PC computerized curve-fitting program of Munson and Rodbard as modified by McPherson.

[3] = molecular target: T1, GHRH receptor of human pituitary …; assay: competition vs 125I-[His1,Nle27]hGHRH(1-32)NH2, human pituitary membranes
Excerpt: Normal human pituitary was purchased from the National Hormone and Peptide Program (UCLA Medical Center, Torrance, Calif.).

[4] = molecular target: T1, GHRH receptor of human pituitary …; assay: as above; remark: listed apart in the source
Excerpt: (§1) Normal human pituitaries were purchased from the National Hormone and Peptide Program (A.F. Parlow, Los Angeles, County Harbor-UCLA Medical Center, Torrance, Calif.).

[5] = molecular target: T1, GHRH receptor of human pituitary …; assay: competition vs 125I-JV-1-42, human pituitary membranes; remark: listed apart in the source
Excerpt: as §1

[6] = molecular target: T1, GHRH receptor of human pituitary …; assay: competition vs 125I-[His1,Nle27]hGHRH(1-32)NH2, human pituitary membranes; remark: listed apart in the source
[7] = molecular target: T2, GHRH receptor of rat pituitary cells (rat, UniProt Q02644); assay: cell-based or functional assay
T2 sequence: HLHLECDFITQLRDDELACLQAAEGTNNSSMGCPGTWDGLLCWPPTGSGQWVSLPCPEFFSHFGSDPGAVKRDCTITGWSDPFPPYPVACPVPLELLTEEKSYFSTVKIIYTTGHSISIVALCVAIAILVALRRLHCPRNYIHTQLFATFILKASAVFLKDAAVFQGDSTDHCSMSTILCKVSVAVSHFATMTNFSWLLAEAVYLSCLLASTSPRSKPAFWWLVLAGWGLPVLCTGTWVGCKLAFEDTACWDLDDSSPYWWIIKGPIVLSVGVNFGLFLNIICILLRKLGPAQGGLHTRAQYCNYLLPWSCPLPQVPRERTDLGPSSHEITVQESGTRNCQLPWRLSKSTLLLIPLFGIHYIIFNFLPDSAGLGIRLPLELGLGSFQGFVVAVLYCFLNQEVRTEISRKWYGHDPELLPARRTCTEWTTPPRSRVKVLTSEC

Row | Molecule | relative affinity (binding potency) vs GHRH (vs GHRH(1-29)=1) [1] | IC50 [2] | relative affinity (binding potency) vs GHRH [2] | relative affinity (binding potency) vs JI-38 [2] | IC50 [3] | relative affinity (binding potency) compared to JI-38 [3] | relative affinity (binding potency) compared to hGHRH(1-29) [3] | IC50 [4] | relative affinity (binding potency) vs GHRH [4] | relative affinity (binding potency) vs JI-38 [4] | IC50 [5] | relative affinity (binding potency) vs JI-38 [5] | fold increase in GHRH receptor binding affinity vs JI-38 [6] | GH-releasing potency in vitro relative to JI-38, superfused rat pituitary cells [7] | fold enhancement of receptor binding affinity vs JI-38 [6]
1 | JI-34 (peptide) | 4.32 | – | – | – | – | – | – | – | – | – | – | – | – | – | –
2 | JI-36 (peptide) | 3.25 | – | – | – | – | – | – | – | – | – | – | – | – | – | –
3 | B1 | – | 1.71 nM | 2.4 vs GHRH(1-29)=1 | 1 vs JI-38=1 | 2.74 nM | 1 vs JI-38=1 | 2.79 vs hGHRH(1-29)NH2=1 | 1.95 nM | 3.03 vs GHRH(1-29)=1 | 1 vs JI-38=1 | 4.35 nM | 1 vs JI-38=1 | – | – | –
4 | [NMeY]ADAIFTQSYR[Orn]VL[Abu]QLSAR[Orn]LLQDI[Nle]D[Agmatine] [P-20356 [N-Me-Tyr^1, Gln^8, Orn^12, Abu^15, Orn^21, Nle^27, Asp^28, Agm^29]hGHRH(1-29)NH2] | – | 0.01 nM | 406 vs GHRH(1-29)=1 | 171 vs JI-38=1 | – | 2.69 vs JI-38=1 | 7.5 vs hGHRH(1-29)NH2=1 | – | – | – | 0.27 nM | 16.1 vs JI-38=1 | 2.7 fold vs JI-38 | ~3 fold vs JI-38 | –
5 | [NMeY][dA]DAIFTQSYR[Orn]VL[Abu]QLSAR[Orn]LLQDI[Nle]DR-NHMe [P-27403 [N-Me-Tyr^1, D-Ala^2, Gln^8, Orn^12, Abu^15, Orn^21, Nle^27, Asp^28]hGHRH(1-29)NH-CH3] | – | – | – | – | 0.74 nM | 3.69 vs JI-38=1 | 10.3 vs hGHRH(1-29)NH2=1 | – | – | – | 0.16 nM | 27.2 vs JI-38=1 | – | – | ~3.7 fold vs JI-38
